# Test results as given in patent publication US5981483.
# Values joined by “and” are separate entries in the source; they are usually repeats but may differ in a detail not shown here. Equal entries are not always repeated.
# T1: recombinant human BMP-2 (human) (UniProt P12643)
# T1 sequence: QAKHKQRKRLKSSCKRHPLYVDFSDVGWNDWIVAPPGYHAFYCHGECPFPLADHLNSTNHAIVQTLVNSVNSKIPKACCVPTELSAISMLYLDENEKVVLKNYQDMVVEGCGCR
# B1: bovine fetuin (protein)
# chain: IPLDPVAGYKEPACDDPDTEQAALAAVDYINKHLPRGYKHTLNQIDSVKVWPRRPTGEVYDIEIDTLETTCHVLDPTPLANCSVRQQTQHAVEGDCDIHVLKQDGQFSVLFTKCDSSPDSAEDVRKLCPDCPLLAPLNDSRVVHAVEVALATFNAESNGSYLQLVEISRAQFVPLPVSVSVEFAVAATDCIAKEVVDPTKCNLLAEKQYGFCKGSVIQKALGGEDVRVTCTLFQTQPVIPQPQPDGAEAEAPSAVPDAAGPTPSAAGPPVASVVVGPSVVAVPLPLHRAHYDLRHTFSGVASVESSSGEAFHVGKTPIVGQPSIPGGPVRLCPGRIRYFKI
# Experiments:
# [1] = target: purified human TGF-β1 (human) (UniProt P01137)
# Chain of purified human TGF-β1 (human) (P01137 279-390 limits assumed): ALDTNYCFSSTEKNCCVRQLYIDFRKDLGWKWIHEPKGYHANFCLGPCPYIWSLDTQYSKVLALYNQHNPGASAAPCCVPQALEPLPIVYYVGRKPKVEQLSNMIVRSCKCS
# [2] = target: purified human TGF-β1 (human) (UniProt P01137); remark: listed apart in the source
# [3] = target: active TGF-β produced by Mv1Lu cells (mink)
# [4] = target: purified human TGF-β1 (human) (UniProt P01137); remark: listed apart in the source
# [5] = target: T1, recombinant human BMP-2 (human)
# [6] = target: TGF-β in dexamethasone-treated rat bone marrow cultures (rat)
# BMP-4 [7] = assay: SPR (BIAcore); analyte over immobilized cytokine
# BMP-6 [8] = assay: SPR (BIAcore); analyte over immobilized cytokine
# Chain of BMP-6 (P22004 375-513): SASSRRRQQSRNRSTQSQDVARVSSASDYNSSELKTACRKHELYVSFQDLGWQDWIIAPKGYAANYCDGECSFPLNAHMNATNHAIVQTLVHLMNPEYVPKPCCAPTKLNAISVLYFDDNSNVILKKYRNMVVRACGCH
# TGF-β2 [9] = assay: SPR (BIAcore); analyte over immobilized cytokine
# BMP-4 [10] = assay: SPR (BIAcore); analyte over immobilized cytokine; repeated calculation
# BMP-6 [11] = assay: as above
# TGF-β2 [12] = assay: as above
binder,measurement,setting,value
B1,"percent neutralization of the antiproliferative activity of TGF-β1 (3H-thymidine incorporation, Mv1Lu cells)",[1],150%
same,"IC50, inhibition of the anti-proliferative activity of TGF-β1 (12 pM) on Mv1Lu cells",[2],4.2e-06 M
same,proliferation of Mv1Lu cells without added cytokine (3H-thymidine incorporation),[3],8 pM
same,"IC50, block of the anti-proliferative activity of exogenously added TGF-β1 (18 pM) on Mv1Lu cells (FIG. 12)",[4],3e-06 M
same,"IC50, reversal of BMP-2 inhibition of Mv1Lu cell growth",[5],2000 nM and 5000 nM
same,"IC50, inhibition of calcium-deposition",[6],10000 nM
same,Kd,BMP-4 [7],140 nM
same,koff,BMP-4 [7],0.00058 s⁻¹
same,kon,BMP-4 [7],4200 M⁻¹ s⁻¹
same,Kd,BMP-6 [8],860 nM
same,koff,BMP-6 [8],0.0025 s⁻¹
same,kon,BMP-6 [8],2900 M⁻¹ s⁻¹
same,koff,TGF-β2 [9],0.0032 s⁻¹
same,kon,TGF-β2 [9],550 M⁻¹ s⁻¹
same,Kd,BMP-4 [10],120 nM
same,koff,BMP-4 [10],0.00051 s⁻¹
same,kon,BMP-4 [10],4200 M⁻¹ s⁻¹
same,Kd,BMP-6 [11],710 nM
same,koff,BMP-6 [11],0.0021 s⁻¹
same,kon,BMP-6 [11],2900 M⁻¹ s⁻¹
same,Kd,TGF-β2 [12],4400 nM
same,koff,TGF-β2 [12],0.0024 s⁻¹
same,kon,TGF-β2 [12],550 M⁻¹ s⁻¹
